Experimental data from PMC2120989 (The Journal of Cell Biology, 1996).

Tests used:
[1] = biological target: full-length recombinant fascin, thioredoxin fusion protein (mouse, UniProt Q61553 1-493); experiment: co-IP
[2] = biological target: T1, recombinant full-length (His)6-tagged Xenopus beta-catenin (Xenopus, UniProt P26233 1-781); experiment: co-IP
T1 sequence (looked up): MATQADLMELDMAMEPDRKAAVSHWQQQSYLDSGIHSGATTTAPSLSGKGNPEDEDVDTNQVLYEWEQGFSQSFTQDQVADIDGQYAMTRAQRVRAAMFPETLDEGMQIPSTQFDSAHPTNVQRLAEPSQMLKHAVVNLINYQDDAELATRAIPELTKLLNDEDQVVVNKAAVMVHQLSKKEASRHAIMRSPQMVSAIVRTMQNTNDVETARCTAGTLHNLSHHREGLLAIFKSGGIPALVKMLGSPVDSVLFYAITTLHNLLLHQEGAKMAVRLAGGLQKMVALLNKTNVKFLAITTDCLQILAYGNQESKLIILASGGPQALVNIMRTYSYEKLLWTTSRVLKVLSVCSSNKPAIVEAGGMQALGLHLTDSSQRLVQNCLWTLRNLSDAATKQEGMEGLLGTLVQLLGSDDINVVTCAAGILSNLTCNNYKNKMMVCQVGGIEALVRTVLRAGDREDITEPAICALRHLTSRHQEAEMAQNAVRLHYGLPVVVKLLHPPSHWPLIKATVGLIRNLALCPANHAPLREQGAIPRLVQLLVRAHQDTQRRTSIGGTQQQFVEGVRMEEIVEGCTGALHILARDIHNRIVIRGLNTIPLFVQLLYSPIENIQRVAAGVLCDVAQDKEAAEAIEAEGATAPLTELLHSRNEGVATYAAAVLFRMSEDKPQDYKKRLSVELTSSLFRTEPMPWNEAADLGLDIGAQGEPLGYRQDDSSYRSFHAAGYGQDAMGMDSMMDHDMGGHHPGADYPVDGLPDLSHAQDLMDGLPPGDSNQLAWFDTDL

B1: GST fusion protein of the Armadillo repeat region of beta-catenin (amino acid residues 167-583) (domain or fragment)
chain: VVNKAAVMVHQLSKKEASRHAIMRSPQMVSAIVRTMQNTNDVETARCTAGTLHNLSHHREGLLAIFKSGGIPALVKMLGSPVDSVLFYAITTLHNLLLHQEGAKMAVRLAGGLQKMVALLNKTNVKFLAITTDCLQILAYGNQESKLIILASGGPQALVNIMRTYSYEKLLWTTSRVLKVLSVCSSNKPAIVEAGGMQALGLHLTDSSQRLVQNCLWTLRNLSDAATKQEGMEGLLGTLVQLLGSDDINVVTCAAGILSNLTCNNYKNKMMVCQVGGIEALVRTVLRAGDREDITEPAICALRHLTSRHQEAEMAQNAVRLHYGLPVVVKLLHPPSHWPLIKATVGLIRNLALCPANHAPLREQGAIPRLVQLLVRAHQDTQRRTSIGGTQQQFVEGVRMEEIVEGCTGALHILARD
binding result [1]: binds

B2: GST-E-cadherin fusion protein, cytoplasmic domain (residues 734-884) of mouse E-cadherin (domain or fragment)
chain: not shown
binding result [2]: binds
